In patent US20050053993A1, “Uses of an endothelial cell receptor” (priority 2002, published 2005):
In brackets after ≈: the same amount, converted by molar mass.

How the values were obtained:
[1] = test system: B16F10; assay: Tumor cell proliferation, B16F10; type: cell-based; settings: Mus musculus, B16-F10; B16F10, 72 hours
Procedure: (§1) Cell Proliferation Assay. The effect of rK5 and rK5 peptides on endothelial cells were assessed using a proliferation assay with 1% BSA and 3 ng/ml bFGF in serum-free media. Relative cell numbers in each well of a 96 well microplate after incubation for 72 hours in the absence or presence of inhibitors were determined by using the AQueous cell proliferation assay (Promega, San Luis Obispo, Calif.). For all other cell lines tested for proliferation, minimal growth media was used (Cao, Y., Ji, R., Davidson, D., Schaller, J., Marti, D., Sohndel, S., McCance, S., O'Reilly, M., Llinas, M., and Folkman, J. Kringle domains of human angiostatin. Characterization of the anti-proliferative activity on endothelial cells. (1996) J. Biol. Chem. 271, 29461-29467). Results are presented as the percent inhibition of control cell (bFGF-induced) proliferation.

[2] = test system: D54 human glioma cells
[3] = test system: P388; assay: Tumor cell proliferation, P388; type: cell-based; settings: Mus musculus; P388, 72 hours
Procedure: as §1

[4] = test system: D54; assay: Tumor cell proliferation, D54; type: cell-based, human; settings: Homo sapiens; D54, 72 hours
Procedure: as §1

[5] = test system: LNCaP; assay: Tumor cell proliferation, LNCaP; type: cell-based; settings: Homo sapiens, 72 hours
Procedure: as §1

[6] = test system: HT-29; assay: Tumor cell proliferation, HT-29; type: cell-based; settings: Homo sapiens; HT-29, 72 hours
Procedure: as §1

[7] = test system: HT1080; assay: Tumor cell proliferation, HT1080; type: cell-based, human; settings: Homo sapiens, HT-1080; HT1080, 72 hours
Procedure: as §1

[8] = target: GRP78 on the surface of human cells (EAHY, HMVEC, HT1080) (human) (UniProt P11021); assay: Scatchard analysis of 125I-dog K5 binding to endothelial cells (50,000 cells per well, 1 hour room temperature)
Sequence of GRP78 on the surface of human cells (EAHY, HMVEC, HT1080) (human) (P11021 19-654): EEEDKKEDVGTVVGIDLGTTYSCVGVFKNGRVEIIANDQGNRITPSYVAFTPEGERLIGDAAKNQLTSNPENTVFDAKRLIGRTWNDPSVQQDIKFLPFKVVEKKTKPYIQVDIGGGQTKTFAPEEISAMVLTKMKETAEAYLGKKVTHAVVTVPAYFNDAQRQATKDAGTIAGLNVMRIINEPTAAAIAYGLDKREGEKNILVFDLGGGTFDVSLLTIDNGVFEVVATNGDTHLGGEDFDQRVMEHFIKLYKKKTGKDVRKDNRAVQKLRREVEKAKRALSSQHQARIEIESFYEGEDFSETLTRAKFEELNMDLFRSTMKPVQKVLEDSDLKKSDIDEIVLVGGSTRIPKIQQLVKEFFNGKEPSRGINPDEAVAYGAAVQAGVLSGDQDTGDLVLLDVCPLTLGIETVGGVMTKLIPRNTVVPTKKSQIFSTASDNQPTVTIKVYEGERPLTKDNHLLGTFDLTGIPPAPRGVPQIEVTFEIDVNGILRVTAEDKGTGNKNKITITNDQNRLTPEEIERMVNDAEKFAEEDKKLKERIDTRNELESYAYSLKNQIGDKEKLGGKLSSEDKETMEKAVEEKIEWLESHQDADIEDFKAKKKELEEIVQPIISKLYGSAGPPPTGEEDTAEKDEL

[9] = target: GRP78 on the surface of human cells (EAHY, HMVEC, HT1080) (human) (UniProt P11021); assay: Scatchard analysis of 125I-dog K5 binding to endothelial cells
[10] = target: GRP78 on the surface of human cells (EAHY, HMVEC, HT1080) (human) (UniProt P11021); assay: cell-based or functional assay
[11] = target: T1, yeast-expressed recombinant human GRP78 (rGRP78) (human, UniProt P11021 19-654, limits assumed); assay: equilibrium dialysis of rGRP78 and 3H-K5 (FIG. 14A)
T1 construct: also called recombinant GRP78
T1 sequence (P11021 19-654 limits assumed): as the sequence (P11021 19-654) above

[12] = target: T2, GRP78 on the surface of human cells (EAHY, HMVEC, HT1080) (human, UniProt P11021 19-654); assay: cell-based or functional assay
T2 sequence (P11021 19-654): as above

[13] = target: T2, GRP78 on the surface of human cells …; assay: labelled K5 binding to endothelial cells (FIG. 10A)
[14] = target: T2, GRP78 on the surface of human cells …; assay: cell-based or functional assay; remark: listed apart in the source
[15] = target: T3, recombinant human GRP78 (rGRP78) (Homo sapiens, UniProt P11021); assay: Equilibrium dialysis of rGRP78 and 3HK5; type: binding; settings: competition dialysis, 2 nM GRP78 and 2 nM 3HK5; mutant up to 25-fold excess of GRP78
T3 construct: host or cells: yeast
T3 sequence (P11021 19-654): as above
Procedure: FIG. 14A is a graph showing equilibrium dialysis of recombinant GRP78 (rGRP78) and ^3HK5. ^3HK5 was added to one side of an equilibrium chamber at concentrations from 0.1 to 3 nM. 2 nM GRP78 was added to the other side of the chamber with a […] mwco filter between. ^3HK5 was allowed to equilibrate to both side of the chamber for 72 hours at room temperature. The amount of ^3HK5 on the GRP78 side of the chamber was compared to chamber with ^3HK5 alone to obtain the bound verses free rK5 distribution.
FIG. 14B is a graph showing competition binding dialysis rGRP78 and ^3HK5. Experiments were performed with 2 nM GRP78 and 2 nM ^3HK5 using rK5(K82A) mutant and unlabeled rK5 at various concentrations from 0.5 to 50 nM. The amount of ^3HK5 on both sides of the chamber was measured after 72 hours and compared to the control.
Binding of rK5 to rGRP78 was measured using equilibrium dialysis (Kariv I, Cao H, Oldenburg K R. Development of a high throughput equilibrium dialysis method. J Pharm Sci. 2001 May; 90(5):580-87). In the top well of a 96 well equilibrium dialyzer (molecular weight cut off 50K Daltons, Harvard Apparatus, Holliston, M A) 150 μl of 10 nM rGRP78 was added. In the reciprocal (bottom) chamber, 150 μl of increasing concentrations from 0.1 to 50 nM ^3HK5 was added. The chambers were shaken at room temperature for 72 hours. […]

[16] = test system: HMVECs; assay: Competition of 3HK5 binding to endothelial cells; design: species or system human; settings: 2 nM 3HK5; rK5(K82A) up to 500 nM
Procedure: Each K5 peptide or a N-terminal antibody to GRP78 was added to HMVECs at various concentrations for 1 hour at room temperature. Cells were washed and the amount of ^3HK5 bound was counted.
Binding of human ^125IrK5 to Endothelial Cells: Tritium-labeled rK5 was added to monolayers of 50,000 HMVEC cells that were either starved or stimulated for 16 hours by 15 ng/ml bFGF and 5 ng/ml VEGF in 96 well plates. The number of counts remaining bound to the cells after extensive washing determined total amount of rK5 bound (Dudani A K, Ganz P R. Endothelial cell surface actin serves as a binding site for plasminogen, tissue plasminogen activator and lipoprotein(a). Br J Haematol. 1996 October; 95(1): 168-78). Binding of ^125IK5 (dog) to Endothelial Cells and rK5 to Recombinant GRP78: The same methods as described above for the expression and purification of human K5 were used to express dog rK5 in E. coli. ^125IK5 (dog) was added to the wells and incubated at room temperature for 1 hour. After 1 hour the cells were washed and lysed with M-Per (Pierce, Racine, Wis.) and the amount of ^125IK5 (dog) bound was counted. Scatchard plot analysis was performed using Prism (GraphPad Software, Inc., San Diego, Calif.) software. Competition binding against 5 nM ^125IK5 (dog) was tested using a monoclonal antibody against GRP78 (N-20, Santa Cruz, Calif.) or a monoclonal antibody against K5 (Green Mountain Antibodies, Burlington, Vt.). The antibodies were added to HMVECs at various concentrations for 1 hour at room temperature. Cells were washed and the amount of bound ^125IK5 (dog) bound was counted. Competition binding was also tested against 2 nM 3HK5. K5 peptides or a c-terminal antibody to GRP78 (A-129, Santa Cruz, Calif.) were added to HMVECs at various concentrations for 1 hour at room temperature. Cells were washed, lysed and the amount of ^3HK5 bound was estimated by scintillation counting.

For `COc1cccc2c1C(=O)c1c(O)c3c(c(O)c1C2=O)C[C@@](O)(C(=O)CO)C[C@@H]3O[C@H]1C[C@H](N)[C@H](O)[C@H](C)O1` [Adriamycin, reference compound], the IC50 [1] was 3.2 ± 0.4 ng/mL (≈ 5.89 nM), the “effect against D54 cell growth in combination with rK5” value ([2]; Adriamycin 50 nM in combination with rK5, 72 hours) was “very effective” and the “inhibition of D54 cell growth, Adriamycin alone” value ([2]; Adriamycin 50 nM, 72 hours) was “did not inhibit”. The IC50 [3] was 2.6 ± 0.2 ng/mL (≈ 4.78 nM), the IC50 [4] was 5 ± 0.4 ng/mL (≈ 9.2 nM) and the IC50 [5] was 410 ± 100 ng/mL (≈ 754 nM). It also gave an IC50 [6] of 118 ± 8 ng/mL (≈ 217 nM) and an IC50 [7] of 2 ± 0.3 ng/mL (≈ 3.68 nM).

For “recombinant dog kringle 5, radioiodinated (^125IrK5 (dog)) (ligand)”, the Kd [8] was 0.8 nM, the binding sites per cell (binding sites per cell) [9] was 32500 and the IC50, inhibition of VEGF stimulated HMVEC migration [10] was 0.5 nM.

B1: recombinant human kringle 5 (rK5), Kringle 5 (450-543) of human plasminogen (ligand, UniProt P00747 469-562, looked up)
chain: LLPDVETPSEEDCMFGNGKGYRGKRATTVTGTPCQDWAAQEPHRHSIFTPETNPRAGLEKNYCRNPDGDVGGPWCYTTNPRKLYDYCDVPQCAA
modifications: tritium-labelled where printed as ^3HK5
notes: range 450-543; Made in E. coli (His-tag removed by enterokinase) and in Pichia pastoris; Labelled and unlabelled rK5 are treated as one molecule; also called ^3HK5; H^3K5
B1 was tested, and the Kd [11] was about 0.7 nM, the “IC50, endothelial cell migration assay (^3HK5)” value [12] was 0.2 nM and the “apoptosis of HT1080 cells under hypoxic conditions” value [12] was over 2 fold. The Kd [13] was 0.8 nM and the “IC50, inhibition of VEGF stimulated HMVEC migration” value [14] was 0.2 nM.

B2: rK5(K82A): mutant rK5(K82A) (protein)
chain: LLPDVETPSEEDCMFGNGKGYRGKRATTVTGTPCQDWAAQEPHRHSIFTPETNPRAGLEKNYCRNPDGDVGGPWCYTTNPRALYDYCDVPQCAA
For B2, the “blocking of 3HK5 binding to rGRP78” value [15] was “did not block binding” and the “blocking of 3HK5 binding to endothelial cells” value [16] was “did not inhibit”.
